This passage reports binding signal results from article PMC11417369, “DNA sequence and chromatin differentiate sequence-specific transcription factor binding in the human malaria parasite Plasmodium falciparum”.

B1: CACACA_site3424 (dsDNA)
DNA 1: GATGAGGACAAACACACACACATAAGTTGATACATA
DNA 2: TATGTATCAACTTATGTGTGTGTGTTTGTCCTCATC
B2: CACACA_site8829 (dsDNA)
DNA 1: TATGTAAAAAATTTAACACACACATATATATATATA
DNA 2: TATATATATATATGTGTGTGTTAAATTTTTTACATA
B3: CACACA_site3507 (dsDNA)
DNA 1: TATATAAACCCGTACACACACATATATGTATATATA
DNA 2: TATATATACATATATGTGTGTGTACGGGTTTATATA
B4: CACACA_site3328 (dsDNA)
DNA 1: TGTATTTATAGCAATACACACATAACAATAAATATA
DNA 2: TATATTTATTGTTATGTGTGTATTGCTATAAATACA
B5: CACACA_site1453 (dsDNA)
DNA 1: ATATTATGTGATTGTGCACACTGGAGATTTTTTTTA
DNA 2: TAAAAAAAATCTCCAGTGTGCACAATCACATAATAT
B6: CACACA_site2985 (dsDNA)
DNA 1: AATATTTATAAAGACACACAAACAAAAAGGATAAAA
DNA 2: TTTTATCCTTTTTGTTTGTGTGTCTTTATAAATATT
B7: CACACA_site3144 (dsDNA)
DNA 1: ATAAAATATATGAAGACACACATAACATCATATTTT
DNA 2: AAAATATGATGTTATGTGTGTCTTCATATATTTTAT
B8: CACACA_site2997 (dsDNA)
DNA 1: CATAATTATGCAATTGCACACAACTATCATTTTTTT
DNA 2: AAAAAAATGATAGTTGTGTGCAATTGCATAATTATG
B9: CACACA_site5414 (dsDNA)
DNA 1: AACAAGTTGCATGGTGCACACATGTATTTATATCTA
DNA 2: TAGATATAAATACATGTGTGCACCATGCAACTTGTT
B10: CACACA_site2768 (dsDNA)
DNA 1: TAGAACAAATAAAACACACACATATATATATATATG
DNA 2: CATATATATATATATGTGTGTGTTTTATTTGTTCTA
B11: CACACA_site55 (dsDNA)
DNA 1: CTCAATATTATTACTACACACAAATTAATATTTTCC
DNA 2: GGAAAATATTAATTTGTGTGTAGTAATAATATTGAG
B12: CACACA_site3513 (dsDNA)
DNA 1: CAATTACGCAGGAATGCACACAATAATAAAAAAAAT
DNA 2: ATTTTTTTTATTATTGTGTGCATTCCTGCGTAATTG
B13: CACACA_site4213 (dsDNA)
DNA 1: GGAATAGTAATATATACACACAAATACAGATATATA
DNA 2: TATATATCTGTATTTGTGTGTATATATTACTATTCC
B14: CACACA_site8576 (dsDNA)
DNA 1: TTCTTACATAAAATATCACACACATAAAAAAACAAT
DNA 2: ATTGTTTTTTTATGTGTGTGATATTTTATGTAAGAA
B15: CACACA_site1517 (dsDNA)
DNA 1: TATGAAATTATAATTACACACAGGAAAATAAAATGT
DNA 2: ACATTTTATTTTCCTGTGTGTAATTATAATTTCATA
B16: CACACA_site5943 (dsDNA)
DNA 1: AAATAAATATATAATACACACAAAAATATAAAATGG
DNA 2: CCATTTTATATTTTTGTGTGTATTATATATTTATTT
B17: CACACA_site2478 (dsDNA)
DNA 1: TAAACAGACATATAAACACACATATAAACCGACATA
DNA 2: TATGTCGGTTTATATGTGTGTTTATATGTCTGTTTA
B18: CACACA_site254 (dsDNA)
DNA 1: TTTAATTATAAGATAACACACAAAAAAAATAAAATA
DNA 2: TATTTTATTTTTTTTGTGTGTTATCTTATAATTAAA
B19: CACACA_site4786 (dsDNA)
DNA 1: AATATACACCCGTGTACACAAATATTTACAAAACGT
DNA 2: ACGTTTTGTAAATATTTGTGTACACGGGTGTATATT
B20: CACACA_site1529 (dsDNA)
DNA 1: AACTATAAAAAAAATACACACATTACCAAAAATATA
DNA 2: TATATTTTTGGTAATGTGTGTATTTTTTTTATAGTT
B21: CACACA_site8689 (dsDNA)
DNA 1: AAAAAAAAAACACGCGCACACACACCCACCCACCCA
DNA 2: TGGGTGGGTGGGTGTGTGTGCGCGTGTTTTTTTTTT
B22: CACACA_site3334 (dsDNA)
DNA 1: ATTTTATTTTTTCACACACACATATATATATATATA
DNA 2: TATATATATATATATGTGTGTGTGAAAAAATAAAAT
B23: CACACA_site4960 (dsDNA)
DNA 1: TTAATAACAAAATAAACACACATATATAAATACCCA
DNA 2: TGGGTATTTATATATGTGTGTTTATTTTGTTATTAA
B24: CACACA_site407 (dsDNA)
DNA 1: ATATTATATTATATAACACACATTTTTCATAACACT
DNA 2: AGTGTTATGAAAAATGTGTGTTATATAATATAATAT
B25: CACACA_site8191 (dsDNA)
DNA 1: TATTATATTATACATACACACCCATATAATATGTTT
DNA 2: AAACATATTATATGGGTGTGTATGTATAATATAATA
B26: CACACA_site2379 (dsDNA)
DNA 1: ACATAGCAATGTTTCACACACAAGAAAAAATACAAT
DNA 2: ATTGTATTTTTTCTTGTGTGTGAAACATTGCTATGT
B27: CACACA_site9081 (dsDNA)
DNA 1: TTTTACTAAATATATACACACATTATACATATATAT
DNA 2: ATATATATGTATAATGTGTGTATATATTTAGTAAAA
B28: CACACA_site2604 (dsDNA)
DNA 1: GAAAATATTACATACACGCACACATTAATATATTTA
DNA 2: TAAATATATTAATGTGTGCGTGTATGTAATATTTTC
B29: CACACA_site6321 (dsDNA)
DNA 1: AAATTAATTAAATATACACACATATATAGATATATA
DNA 2: TATATATCTATATATGTGTGTATATTTAATTAATTT
B30: CACACA_site7314 (dsDNA)
DNA 1: CAATGTTAACATATTACACACATATGTATTTATAAC
DNA 2: GTTATAAATACATATGTGTGTAATATGTTAACATTG
B31: CACACA_site7392 (dsDNA)
DNA 1: GGTTCATATCTTAACACACACATACATATTATAGAT
DNA 2: ATCTATAATATGTATGTGTGTGTTAAGATATGAACC
B32: CACACA_site8579 (dsDNA)
DNA 1: AATATTTATAAATTTACACACACACCGGTGAACATA
DNA 2: TATGTTCACCGGTGTGTGTGTAAATTTATAAATATT
B33: CACACA_site7096 (dsDNA)
DNA 1: TACCTATATACATACACACACATATAACCAATGTAG
DNA 2: CTACATTGGTTATATGTGTGTGTATGTATATAGGTA
B34: CACACA_site2544 (dsDNA)
DNA 1: TATTATTTATTATATGCACACATCGAACTATTATTT
DNA 2: AAATAATAGTTCGATGTGTGCATATAATAAATAATA
B35: CACACA_site8016 (dsDNA)
DNA 1: TTAGGTAGAAAAAAGACACACACATTATATATATAT
DNA 2: ATATATATATAATGTGTGTGTCTTTTTTCTACCTAA
B36: CACACA_site6268 (dsDNA)
DNA 1: AACATATTTATATACACACACATATTTATATGAAAT
DNA 2: ATTTCATATAAATATGTGTGTGTATATAAATATGTT
B37: CACACA_site2570 (dsDNA)
DNA 1: AAAAGATAATTATGCACACACACACCCCCACCCAAC
DNA 2: GTTGGGTGGGGGTGTGTGTGTGCATAATTATCTTTT
B38: CACACA_site1962 (dsDNA)
DNA 1: TTTTTAACATATCATACACACAACAACTTTTTATAG
DNA 2: CTATAAAAAGTTGTTGTGTGTATGATATGTTAAAAA
B39: CACACA_site337 (dsDNA)
DNA 1: AGCAGACACCAACACACACACATATATATATATATA
DNA 2: TATATATATATATATGTGTGTGTGTTGGTGTCTGCT
B40: CACACA_site1730 (dsDNA)
DNA 1: AAAATTTTTTACTTTACACACATTTTGTATATTTTG
DNA 2: CAAAATATACAAAATGTGTGTAAAGTAAAAAATTTT
B41: CACACA_site377 (dsDNA)
DNA 1: AGGTAGAAAAAAGACACACACATTATGTATATATAT
DNA 2: ATATATATACATAATGTGTGTGTCTTTTTTCTACCT

For the series, the target named is T1, PF3D7_0420300 D1 (Plasmodium falciparum, UniProt Q8I1N6 1956-2015).
T1 sequence: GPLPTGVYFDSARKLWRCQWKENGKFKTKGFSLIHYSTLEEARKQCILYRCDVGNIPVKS
The experiment in a line: gcPBM; about 25 ug protein; PBS, 1% milk, 0.2 mg/ml BSA, salmon testes DNA, 0.03% Triton X-100. The settings on record: tags: N-terminal GST (pGEX-4T-1), kept; label: surface-attached array probe.
Consider B1, for which the binding signal is 9.89 ln median PBM intensity, better of two orientations. To B2 belongs 9.57 ln median PBM intensity, better of two orientations; to B3, 9.93 ln median PBM intensity, better of two orientations; to B4, 9.56 ln median PBM intensity, better of two orientations. Turning to B5, the binding signal is 9.58 ln median PBM intensity, better of two orientations.

Consider B6, for which the binding signal was 9.84 ln median PBM intensity, better of two orientations. B7: the binding signal was 9.52 ln median PBM intensity, better of two orientations. To B8 belongs 9.61 ln median PBM intensity, better of two orientations; to B9, 9.53 ln median PBM intensity, better of two orientations; to B10, 9.9 ln median PBM intensity, better of two orientations. To B11 belongs 9.54 ln median PBM intensity, better of two orientations; to B12, 9.51 ln median PBM intensity, better of two orientations. Take B13: the binding signal is 9.83 ln median PBM intensity, better of two orientations.

With B14, the binding signal is 9.93 ln median PBM intensity, better of two orientations. To B15 belongs 9.83 ln median PBM intensity, better of two orientations.

For B16, the binding signal was 9.84 ln median PBM intensity, better of two orientations.

On to B17, for which the binding signal was 9.92 ln median PBM intensity, better of two orientations.

Regarding B18, the binding signal is 9.6 ln median PBM intensity, better of two orientations. To B19 belongs 9.51 ln median PBM intensity, better of two orientations; to B20, 9.86 ln median PBM intensity, better of two orientations; to B21, 10.7 ln median PBM intensity, better of two orientations. Regarding B22, the binding signal was 9.91 ln median PBM intensity, better of two orientations. As to B23, the binding signal is 9.9 ln median PBM intensity, better of two orientations. To B24 belongs 9.58 ln median PBM intensity, better of two orientations; to B25, 9.49 ln median PBM intensity, better of two orientations. To B26 belongs 9.85 ln median PBM intensity, better of two orientations; to B27, 9.49 ln median PBM intensity, better of two orientations. With B28, the binding signal was 9.59 ln median PBM intensity, better of two orientations. On to B29, for which the binding signal was 9.5 ln median PBM intensity, better of two orientations. Next, B30: 9.55 ln median PBM intensity, better of two orientations; B31: 9.92 ln median PBM intensity, better of two orientations; B32: 9.89 ln median PBM intensity, better of two orientations. With B33, the binding signal is 9.88 ln median PBM intensity, better of two orientations. To B34 belongs 9.56 ln median PBM intensity, better of two orientations; to B35, 9.94 ln median PBM intensity, better of two orientations; to B36, 9.85 ln median PBM intensity, better of two orientations. Next, B37: 10.8 ln median PBM intensity, better of two orientations. B38: the binding signal was 9.54 ln median PBM intensity, better of two orientations. Consider B39, for which the binding signal was 9.86 ln median PBM intensity, better of two orientations. For B40, the binding signal was 9.87 ln median PBM intensity, better of two orientations. With B41, the binding signal is 9.87 ln median PBM intensity, better of two orientations.
